# Reference: patent publication US20240383970A1 (BEIJING IMMUNOCHINA PHARMACEUTICALS, published 2024)
# Target: T1, CAR targeting CD19 containing a Strep-Tag II tag, on CAR-T cells (UniProt P01732 138-206; Q07011 214-255; P20963 52-163)
# T1 construct: domain: CD8α hinge region, CD8α transmembrane region;domain: intracellular region of 4-IBB;domain: intracellular region of CD3ζ; Expressed on human T cells after lentiviral transduction; also called CAR-T cells containing a Strep-Tag II tag; Strep-Tag II short peptide
# T1 sequence (P20963 other isoform, or with tags, fused parts or gaps): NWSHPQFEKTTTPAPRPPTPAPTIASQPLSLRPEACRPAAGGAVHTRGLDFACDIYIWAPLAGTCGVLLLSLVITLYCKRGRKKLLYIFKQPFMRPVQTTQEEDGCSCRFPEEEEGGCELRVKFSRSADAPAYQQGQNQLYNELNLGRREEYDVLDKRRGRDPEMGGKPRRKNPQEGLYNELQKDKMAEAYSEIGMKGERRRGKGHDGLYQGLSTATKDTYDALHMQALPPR
# Assay: flow cytometry titration (10 concentrations) on CAR-T cells with Strep-Tag II tag; filing equates EC50 with KD (saturated concentration method)
# From the text: The antibody affinity detection of the present invention adopts the dynamic equilibrium assay method (saturated concentration method). In the presence of a small amount of antigen, the antibody is subjected to gradient dilution to detect the concentration of the antigen-antibody complex. When the concentration of the antigen-antibody complex accounts for half of the total antigen concentration, the corresponding concentration value (EC50) of the antibody is the KD value of the antibody relative to the antigen.
# CAR-T cells containing a Strep-Tag II tag were collected, washed with DPBS and counted. The cells were dispensed into several EP tubes at approximately 3×10⁵ cells per tube. After centrifugation to remove the supernatant, 8A882 antibody or 8F8D1 antibody and a positive control antibody (commercial Strep-Tag II antibody, Abcam; Cat #: ab184224) diluted in serial gradient for 10 concentrations were added and incubated at room temperature for 15 minutes. After washing the cells twice with DPBS, PE-labeled rat anti-mouse IgG was added, and incubated at room temperature for 15 minutes. After washing the cells twice, FACS analysis and GraphPad Prism software were used to calculate the EC50 value. […] Compared with the positive control antibody, the two strain antibodies of the present invention have high affinity.
row,Binder,EC50
1,"8A882 antibody (antibody, mouse IgG1, kappa, V domains shown, Mouse monoclonal antibody from a hybridoma, purified from ascites on a Protein A/G column) VH: EVQLQQSGPELVKPGASVKMSCKASGYTFTDYYMKWVKQSHGKSLEWIGDINPNNGDTFYNQKFKGKATLTVDKSSSSAYMQLNSLTSEDSAVYYCARYYGNSSPWFAYWGQGTLVTVSA VL: DIVLTQSPASLAVSLGQRATISCKASQSVDYDGDSYMNWYQQKPGQPPKLLIYAASNLQSGIPARFSGSGSGTDFTLNIHPVEEEDTATYYCQQITEDPWTFGGRTKLEIKR",0.4 nM
2,"8F8D1 antibody (antibody, V domains shown, Mouse monoclonal antibody from a hybridoma, purified from ascites on a Protein A/G column; also called PE-labeled 8F8D1 antibody) VH: EVQLQQSGPELVKPGASVKMSCKASGYTFTDYYMKWVKQSHGKRLEWIGDINPNNGDTFYNQKFKGKATLTVDKSSSTAYMQLNSLTSEDSAVYYCARYYGRSSPWFPYWGQGTLVTVSA VL: DIVLTQSPASLGVSLGQRATISCKASQSVDNSGDSYMNWYQQKPGQPPKLLIYAASNLESGIPARFSGSGSGTDFTLNIHPVEEEDAATYYCQQINEDPWTFGGRTKLEIKR",0.2 nM
